This note sets out measurements from publication PMC7311520, “β-carboline chemical signals induce reveromycin production through a LuxR family regulator in Streptomyces sp. SN-593” (Scientific Reports, 2020).

Data set [1] concerns the target T1, RevU (LuxR family transcriptional regulator) (Actinacidiphila reveromycinica, UniProt G1UDV5).
T1 construct: purified His6-tagged RevU expressed in E. coli from a codon-optimized synthetic gene
Put plainly: SPR (Biacore T200, His6-RevU immobilized on NTA chip); supported by BR-1 bead pull-down with free BR-1 competition. Format: binding.

For data set [2], the target named is T2, RevU (LuxR family regulator), His6-tagged (Streptomyces sp. SN-593 (S. …, UniProt G1UDV5)).
T2 sequence: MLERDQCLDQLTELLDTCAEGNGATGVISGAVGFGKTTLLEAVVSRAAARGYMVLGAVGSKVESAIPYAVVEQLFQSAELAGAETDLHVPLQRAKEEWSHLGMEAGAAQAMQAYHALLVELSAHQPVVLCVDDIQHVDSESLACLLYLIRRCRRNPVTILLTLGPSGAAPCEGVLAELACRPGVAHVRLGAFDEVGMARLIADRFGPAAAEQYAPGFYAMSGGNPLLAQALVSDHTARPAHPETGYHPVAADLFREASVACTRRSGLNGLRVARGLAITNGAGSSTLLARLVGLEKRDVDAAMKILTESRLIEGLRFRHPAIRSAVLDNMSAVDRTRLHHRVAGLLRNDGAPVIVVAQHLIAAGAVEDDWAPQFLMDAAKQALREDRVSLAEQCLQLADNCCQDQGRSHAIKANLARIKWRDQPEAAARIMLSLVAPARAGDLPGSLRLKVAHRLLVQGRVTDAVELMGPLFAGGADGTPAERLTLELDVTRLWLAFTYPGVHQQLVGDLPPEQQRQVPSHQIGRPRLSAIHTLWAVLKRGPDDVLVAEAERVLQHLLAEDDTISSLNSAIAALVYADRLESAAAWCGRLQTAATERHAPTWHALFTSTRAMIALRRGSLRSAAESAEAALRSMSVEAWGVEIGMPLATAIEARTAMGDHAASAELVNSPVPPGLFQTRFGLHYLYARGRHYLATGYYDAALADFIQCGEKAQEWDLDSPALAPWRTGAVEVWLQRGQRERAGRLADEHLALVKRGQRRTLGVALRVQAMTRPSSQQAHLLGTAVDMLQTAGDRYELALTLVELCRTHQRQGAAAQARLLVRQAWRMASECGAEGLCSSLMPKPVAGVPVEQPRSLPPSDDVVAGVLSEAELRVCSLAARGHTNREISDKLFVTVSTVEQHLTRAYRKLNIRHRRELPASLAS
Put plainly: SPR; no BR-1; SPR: 10 mM HEPES pH 7.4, 3 mM EDTA, 150 mM NaCl, 0.05% Tween-20, 25 C, RevU 3.9-250 nM; BLI: 10 mM HEPES pH 7.3, 3 mM EDTA, 150 mM NaCl, 0.05% Tween-20, room temperature. To be noted: protein: recombinant; tags: His6 (pColdI); chain copies: 2; label: 5'-biotin; blunt.

The target of data set [3] is T2, RevU (LuxR family regulator), …. Put plainly: SPR; compound 3 (tetrahydro BR-1), 125 nM RevU; not enhanced; SPR: 10 mM HEPES pH 7.4, 3 mM EDTA, 150 mM NaCl, 0.05% Tween-20, 25 C, RevU 3.9-250 nM; BLI: 10 mM HEPES pH 7.3, 3 mM EDTA, 150 mM NaCl, 0.05% Tween-20, room temperature. To be noted: protein: recombinant; tags: His6 (pColdI); chain copies: 2; label: 5'-biotin; blunt.

Consider `NC(=O)c1cc2c([nH]c3ccccc32)c(-c2ccccc2)n1` [compound 1, BR-1], for which binding in data set [1] was put at a Kd of 1310 nM.

B1: Fragment 4 (dsDNA)
DNA 1: GATTATGCGTCGCATTCGGTGTTTGTGGAGTTGATCGAGGATCGGGTTCT
DNA 2: AGAACCCGATCCTCGATCAACTCCACAAACACCGAATGCGACGCATAATC
Take B1: in data set [2], the binding result was “binds”.

B2: Fragment 1-1 (dsDNA)
DNA 1: ACGCCGCAACGACCAACAGAGG
DNA 2: CCTCTGTTGGTCGTTGCGGCGT
B2: in data set [3], the binding result was “binds”.
